Assay results as given in patent US20250314655A1 (AUTOLUS, published 2025).
No end group written: not given here.

B1: CP_01_D10 (scFv, not shown: small tags and cut ends)
scFv: QVQLVESGGGLVQPGRSLRLSCAASGFTFSSYAMHWVRQAPGKGLEWVAVISYDGSSKYYADSVKGRFTISRDNSKNTLYLQMNSLRAEDTAVYYCAKGGGSFGAFDIWGQGTLVTVSSGGGGSGGGGSGGGASDIQMTQSPSSLSASVGDRVTITCRASQSISRYLNWYQQKPGKAPNLLIYAASSLQSGVPSRFSGSGSGTDFTLTISSLQPEDFATYYCQQYNSYPLTFGGGTKLEIKRTAAA
notes: scFv from pSANG10-3F (His6, tri-FLAG), culture supernatant
B2: CP_01_F02 (scFv, not shown: small tags and cut ends)
scFv: QVQLVESGGGVVQPGRPLRLSCAASGFTFSSYAMHWVRQAPGKGLEWVAVISYDGSNKYYADSVKGRFTISRDNSKNTLYLQMNSLRAEDTAVYYCARAGYSYADYWGQGTMVTVSSGGGGSGGGGSGGGASDIQMTQSPSSLSASVGDRVTITCRASQGIRNDLGWYQQKPGKAPKRLIYAASSLQSGVPSRFSGSGSGTEFTLTISSLQPEDFATYYCLQHNSYPLTFGGGTKVDIKRTAAA
notes: as for B1
B3: CP_01_E07 (scFv, not shown: small tags and cut ends)
scFv: QVQLVESGGGVVQPGRSLRLSCAASGFTFSSYGMHWVRQAPGKGLEWVAVISYDGSNKYYADSVKGRFTISRDNSKNTLYLQMNSLRAEDTAVYYCAKDLGGSGGAFDIWGQGTLVTVSSGGGGSGGGGSGGGASDIVMTQTPHSLSVTPGQPASISCKSSQSLLYSDGKTYLYWYLQKPGQPPQLLIYEVSNRFSGVPDRFSGSGSGTDFTLKISRVEAEDVGVYYCMQSIQLYTFGQGTKVDIKRTAAA
notes: as for B1
B4: CP_01_D12 (scFv, not shown: small tags and cut ends)
scFv: EVQLLESGGGVVQPGRSLRLSCAASGFTFSSYAMHWVRQAPGKGLEWVAVISYDGSNKYYADSVKGRFTISRDNSKNTLYLQMNSLRAEDTAVYYCAKGGDTYGFLDNWGQGTMVTVSSGGGGSGGGGSGGGASDIQMTQSPSTLSASVGDRVTITCRASQSISSWLAWYQQKPGKAPKLLIYKASSLESGVPSRFSGSGSGTDFTLTISSLQPEDFATYYCQQFNAYPLTFGGGTKVEIKRTAAA
notes: as for B1
B5: CP_01_D03 (scFv, not shown: small tags and cut ends)
scFv: QVQLVESGGGVVQPGRSLRLSCAAPGFTFSSYGMHWVRQAPGKGLEWVAVISYDGSNKYYADSVKGRFTISRDNSKNTLYLQMNSLRAEDTAVYYCARNKQYGMDVWGQGTLVTVSSGGGGSGGGGSGGGASDIVMTQSPATLSLAPGERATLSCRASQSVGSNLAWYQQKPGQAPSLLIYDASTRATGIPARFSGSGSGTDFTLTISSLQSEDIAVYYCQQYHRWPLTFGGGTKVEIKRTAAA
notes: as for B1
B6: CP_01_C11 (scFv, not shown: small tags and cut ends)
scFv: QVQLVESGAEVKKPGASVKVSCKASGYTFTGYYMHWVRQAPGQGLEWMGRINPNSGGTNYAQKFQGRVTMTRDTSISTAYMELSRLRSDDTAVYYCASGGAGWNWGQGTMVTVSSGGGGSGGGGSGGGASNFMLTQPHSVSESPGKTATISCTRSSGSIASNYVQWYQQRPGSAPTTVIYEDNQRPFGVPDRFSGSIDSSSNSASLTISGLKTEDEADYYCQSHDSSNVVFGGGTQLTVLGQPAA
notes: as for B1
B7: CP_01_C08 (scFv, not shown: small tags and cut ends)
scFv: EVQLLESGGGAVQPGRSLRLSCAASGFTFSSYAMHWVRQAPGKGLEWVAVISYDGSNKYYADSVKGRFTISRDNSKNTLYLQMNSLRAEDTAVYYCASGYSSSWYLDYWGQGTLVTVSSGGGGSGGGGSGGGASDIQMTQSPSSVSASVGDRVTITCQASQDISNYLNWYQQKPGKAPKLLIYDASNLETGVPSRFSGSGSGTDFTFTISSLQPEDIATYYCQQYDNLPLTFGGGTKVEIKRTAAA
notes: as for B1
B8: CP_01_E09 (scFv, not shown: small tags and cut ends)
scFv: QVQLVESGGGVVQPGRSLRLSCAASGFTFSSYAMHWVRQAPGKGLEWVAVISYDGSNKYYADSVKGRFTISRDNSKNTLYLQMNSLRAEDTAVYYCARAHNSSSWSFDYWGQGTLVTVSSGGGGSGGGGSGGGASDIQMTQSPSSLSASVGDRVTITCRASQSISSYLNWYQQKPGKAPKLLIYDASNLETGVPSRFSGSGSGTDFTFTISSLQPEDIATYYCQQYDNLPLTFGGGTKVDIKRTAAA
notes: as for B1
B9: CP_01_F06 (scFv, not shown: small tags and cut ends)
scFv: EVQLLESGGGVVQPGRSLRLSCAASGFTFSSYGMHWVRQAPGKGLEWVAVISYDGSNKYYADSVKGRFTISRDNSKNTLYLQMNSLRAEDTAVYYCAKDDGAMRYWGQGTMVTVSSGGGGSGGGGSGGGASDIQMTQSPDSLAVSLGERATINCKSSQSVLYSSNNKNYLAWYQQKPGQPPKLLIYWASTRESGVPDRFSGSGSGTDFTLTISSLQAEDVAVYYCQQYYDSPYTFGQGTKVDIKRTAAA
notes: as for B1
B10: CP_03_E05 (scFv, not shown: small tags and cut ends)
scFv: EVQLVESGGGVVQPGGSLRLSCAASGFTFSSYAMSWVRQAPGKGLEWVSAISGSGGSTYYADSVKGRFSISRDNSKNTLYLQMNSLRAEDTAVYYCARTRSSGAFDIWGQGTLVTVSSGGGGSGGGGSGGGASNFMLTQPHSVSESPGKTVTISCTRSSGSIASKYVQWYQQRPGSSPTTVIYEDNQRPSGVPDRFSGSIDTSSNSASLTISGLRTEDEADYYCHSYDSNNHSVFGGGTKVTVLGQPAA
notes: as for B1
B11: CP_03_H06 (scFv, not shown: small tags and cut ends)
scFv: QVQLVESGGGLVKPGGSLRLSCAASGFTFSDYYMSWIRQAPGKGLEWVSYISSSGSTIYYADSVEGRFTISRDNAKNSLYLQMNSLRTEDTAVYYCARARVGGMDVWGQGTMVTVSSGGGGSGGGGSGGGASNFMLTQPHSVSESPGKTVTISCTRSSGSIASNYVQWYQQRPGSSPTTVIYEDNQRPSGVPDRFSGSIDSSSNSASLTISGLKTEDEADYYCQSFDADNLHVVFGGGTKLTVLGQPAA
notes: as for B1
B12: CP_03_F09 (scFv, not shown: small tags and cut ends)
scFv: QMQLVQSGAEVKKPGASVKVSCKASGYTFASYYMHWVRQAPGQGLEWMGIINPSGGSTSYAQKFQGRVTMTRDTSTSTVYMELSRLRSDDTAVYYCASNRGGSYKSVGMDVWGQGTTVTVSSGGGGSGGGGSGGGASNFMLTQPQSVSESPGKTVTISCTRSSGNFASKYVQWYQQRPGSSPTTVIYENYQRPSGVPDRFSGSIDSSSNSATLTISGLKTEDEADYYCQSYDEVSVVFGGGTQLTVLGQPAA
notes: as for B1
B13: CP_03_C12 (scFv, not shown: small tags and cut ends)
scFv: EVQLVQSGAEVKKPGASVKVSCKASGYTFTGYYMHWVRQAPGQGLEWMGWINPNSGGTNYAQKFQGRVTMTRDTSISTAYMELSSLRSEDTAVYYCARDTGPIDYWGQGTMVTVSSGGGGSGGGGSGGGASDIVMTQTPLSLSVTPGQPASISCKSSQSLLHSDGKTYLYWYLQKPGQPPQLLVYEVSNRFSGVPDKFSGSGSGTDFTLKISRVEAEDVGVYYCMQGIQLPPTFGGGTKVDIKRTAAA
notes: as for B1
B14: CP_03_D04 (scFv, not shown: small tags and cut ends)
scFv: EVQLVESGGGVVQPGRSLRLSCAASGFTFSSYAMHWVRQAPGKGLEWVAVISYDGSNKYYADSVKGRFTISRDNSKNTLYLQMNSLRAEDTAVYYCARGGFTVPGGAFDIWGQGTLVTVSSGGGGSGGGGSGGGASNFMLTQPHSVSDSPGKTVTISCTRSSGRIGSNFVQWYQQRPGSSPTTVIYEDDQRPSGVPARFSGSIDSSSNSASLTISGLTTADEAGYYCQSYDASNVIFGGGTKLTVLGQPAA
notes: as for B1
B15: CP_03_G09 (scFv, not shown: small tags and cut ends)
scFv: QVQLQQSGPGLVKPSQTLSLTCAISGDSVSSNSAAWNWIRQSPSRGLEWLGRTYYRSKWYNDYAVSVKSRITINPDTSKNQFSLQLNSVTPEDTAVYYCARDQWLANYYYYGMDVWGQGTLVTVSSGGGGSGGGGSGGGASSYELTQPLSVSVALGQTARITCGGNNIGSKNVHWYQQKPGQAPVLVIYRDNNRPSGIPERFSGSNSGNTATLTISKAQAGDEADYYCQVWDSNSWVFGGGTKLTVLGQPAA
notes: as for B1
B16: CP_03_D09 (scFv, not shown: small tags and cut ends)
scFv: EVQLVQSGAEVKKPGSSVKVSCEASGYTFTSYAISWVRQAPGQGLEWMGWMNPNSGNTGYAQKFQGRVTMTRNTSISTAYMELSSLRSEDTAVYYCARVSSYYGMDVWGQGTLVTVSSGGGGSGGGGSGGGASNFMLTQPLSVSESPGKTVTISCTRSSGSIASNYVQWYQQRPGSAPTTVIYEDNQRPSGVPDRFSGSIDSSSNSASLTISGLKTEDEADYYCQSYNSSNHWVFGGGTKVTVLGQPAA
notes: as for B1
B17: CP_03_G02 (scFv, not shown: small tags and cut ends)
scFv: EVQLVQSGAEVKKPGSSVKVSCKASGGTFSSYAISWVRQAPGQGLEWMGIINPSGGSTSYAQKFQGRVTMTRDTSTSIVYMELSSLRSEDTAVYYCARGVWNSGSYLGFDYWGQGTLVTVSSGGGGSGGGGSGGGASDIQMTQSPSSLSASVGDRVTITCQASQDISNYLNWYQQKPGKAPKLLIYAASSLQSGVPSRFSGSGSGTDFTLTISSLQPEDFATYYCQQSYSTPLTFGGGTKLEIKRTAAA
notes: as for B1
B18: CP_03_F10 (scFv, not shown: small tags and cut ends)
scFv: EVQLVESGAEVKKPGASVKVSCKASGYTFTGYYMHWVRQAPGQGLEWMGRINPNSGGTNYAQKFQGRVTMTRDTSISTAYMELSSLRSEDTAVYYCARFGERYAFDIWGQGTLVTVSSGGGGSGGGGSGGGASQSELTQPPSASGSPGQSVTISCTGTSTDVGAFHFVSWYQHTPGKAPKLLISEVRKRASGVPDRFSGSRSGNTASLTVSGLQSEDEADYFCSAYTGSNYVFGSGTKLTVLGQPAA
notes: as for B1
B19: CP_03_D05 (scFv, not shown: small tags and cut ends)
scFv: QVQLVESGAEVKKPGASVKVSCKASGYTFTGYYMHWVRQAPGQGLEWMGRINPNSGGTNYAQKFQGRVTMTRDTSISTAYMELSRLRSDDTAVYYCASPRGRGSAFDIWGQGTLVTVSSGGGGSGGGGSGGGASSYELTQPPSVSVSPGQTATISCSGDQLGGKYGHWYQKKPGQSPVLVLYQDRKRPAGIPERFSGSSSGNTITLTISGTQAVDEADYYCQAWDTNLGGVFGGGTKVTVLGQPAA
notes: as for B1

Target: T1, TRBC1 peptide (biotinylated) (human, also: biotinylated (site not given here))
T1 construct: In the monoclonal screen: biotinylated, 0.5 ug/ml on neutravidin-coated plates; In the polyclonal phage ELISA also presented as BSA or OA conjugate of the C-terminal-cysteine form; also called Bio-TRBC1; biotinylated TRBC1
T1 peptide: VLEDLNKVFPPEVAV
Experiment: TRF assay, scFv on biotin-peptide/neutravidin plate
Protocol: (§1) The scFv populations from round-2 and round-3 selection outputs were sub-cloned into the pSANG10-3F expression vector and transformed into E. coli BL21 (DE3) cells. 1128 individual transformants (564 clones/TRBC peptide) were picked into 12×96 well culture plates (94 clones/plate) and antibody expression was induced using autoinduction media. Recombinant monoclonal antibodies secreted into culture supernatant after overnight induction were tested for binding to biotinylated TRBC1 and TRBC2 immobilised on neutravidin coated Nunc Maxisorp™ 96 well plates.

Binder | TRBC1 binding [TRF units]
B1 | 371000
B2 | 302000
B3 | 332000
B4 | 393000
B5 | 328000
B6 | 349000
B7 | 353000
B8 | 403000
B9 | 325000

Target: T2, TRBC2 peptide (biotinylated) (human, also: biotinylated (site not given here))
T2 construct: In the monoclonal screen: biotinylated, 0.5 ug/ml on neutravidin-coated plates; In the polyclonal phage ELISA also presented as BSA or OA conjugate of the C-terminal-cysteine form; also called Bio-TRBC2; biotinylated TRBC2
T2 peptide: VLEDLKNVFPPEVAV
Experiment: as above
Protocol: as §1

Binder | TRBC2 binding [TRF units]
B10 | 217000
B11 | 168000
B12 | 132000
B13 | 167000
B14 | 143000
B15 | 139000
B16 | 129000
B17 | 152000
B18 | 140000
B19 | 213000
